Legend:
Assay in all cases: cell-based or functional assay
[1] = molecular target: HIV-1 Env of pseudovirus 191084 B7-19 (HIV-1)
[2] = molecular target: HIV-1 Env of pseudovirus 191955_A11 (HIV-1)
[3] = molecular target: HIV-1 Env of pseudovirus 211-9 (HIV-1)
[4] = molecular target: HIV-1 Env of pseudovirus 231965.c01 (HIV-1)
[5] = molecular target: HIV-1 Env of pseudovirus 231966.c02 (HIV-1)
[6] = molecular target: HIV-1 Env of pseudovirus 235-47 (HIV-1)
[7] = molecular target: HIV-1 Env of pseudovirus 3016.v5.c45 (HIV-1)
[8] = molecular target: HIV-1 Env of pseudovirus 3103.v3.c10 (HIV-1)
[9] = molecular target: HIV-1 Env of pseudovirus 3301.v1.c24 (HIV-1)
[10] = molecular target: HIV-1 Env of pseudovirus 3817.v2.c59 (HIV-1)
[11] = molecular target: HIV-1 Env of pseudovirus 6041.v3.c23 (HIV-1)
[12] = molecular target: HIV-1 Env of pseudovirus 620345.c01 (HIV-1)
[13] = molecular target: HIV-1 Env of pseudovirus 6480.v4.c25 (HIV-1)
[14] = molecular target: HIV-1 Env of pseudovirus 6540.v4.c1 (HIV-1)
[15] = molecular target: HIV-1 Env of pseudovirus 6545.v4.c1 (HIV-1)
[16] = molecular target: HIV-1 Env of pseudovirus 6811.v7.c18 (HIV-1)
[17] = molecular target: HIV-1 Env of pseudovirus 6952.v1.c20 (HIV-1)
[18] = molecular target: HIV-1 Env of pseudovirus 89-F1_2_25 (HIV-1)
[19] = molecular target: HIV-1 Env of pseudovirus 9004SS_A3_4 (HIV-1)
[20] = molecular target: HIV-1 Env of pseudovirus 928-28 (HIV-1)
[21] = molecular target: HIV-1 Env of pseudovirus BJOX009000.02.4 (HIV-1)
[22] = molecular target: HIV-1 Env of pseudovirus BJOX015000.11.5 (HIV-1)
[23] = molecular target: HIV-1 Env of pseudovirus BJOX025000.01.1 (HIV-1)
[24] = molecular target: HIV-1 Env of pseudovirus BJOX028000.10.3 (HIV-1)
[25] = molecular target: HIV-1 Env of pseudovirus C1080.c03 (HIV-1)
[26] = molecular target: HIV-1 Env of pseudovirus C3347.c11 (HIV-1)
[27] = molecular target: HIV-1 Env of pseudovirus C4118.c09 (HIV-1)
[28] = molecular target: HIV-1 Env of pseudovirus P1981_C5_3 (HIV-1)
[29] = molecular target: HIV-1 Env of pseudovirus R1166.c01 (HIV-1)
[30] = molecular target: HIV-1 Env of pseudovirus R2184.c04 (HIV-1)
[31] = molecular target: HIV-1 Env of pseudovirus T251-18 (HIV-1)
[32] = molecular target: HIV-1 Env of pseudovirus T255-34 (HIV-1)
[33] = molecular target: HIV-1 Env of pseudovirus T257-31 (HIV-1)
[34] = molecular target: HIV-1 Env of pseudovirus X1193_c1 (HIV-1)
[35] = molecular target: HIV-1 Env of pseudovirus X1632_S2_B10 (HIV-1)
[36] = molecular target: HIV-1 Env of pseudovirus X2131_C1_B5 (HIV-1)

## N49P9 (antibody)
[1]
  neutralization IC50: 0.042 mg/L
  neutralization IC80: 0.129 mg/L
  neutralization MPI: 100
[2]
  neutralization IC50: > 50 mg/L
  neutralization IC80: > 50 mg/L
  neutralization MPI: 35
[3]
  neutralization IC50: 0.136 mg/L
  neutralization IC80: 0.485 mg/L
  neutralization MPI: 100
[4]
  neutralization IC50: 0.253 mg/L
  neutralization IC80: 1.16 mg/L
  neutralization MPI: 100
[5]
  neutralization IC50: 0.074 mg/L
  neutralization IC80: 0.244 mg/L
  neutralization MPI: 100
[6]
  neutralization IC50: 0.072 mg/L
  neutralization IC80: 0.271 mg/L
  neutralization MPI: 98
[7]
  neutralization IC50: 0.06 mg/L
  neutralization IC80: 0.209 mg/L
  neutralization MPI: 100
[8]
  neutralization IC50: 17.6 mg/L
  neutralization IC80: > 50 mg/L
  neutralization MPI: 55
[9]
  neutralization IC50: 0.072 mg/L
  neutralization MPI: 100
[10]
  neutralization IC50: 1.09 mg/L
  neutralization IC80: 5.86 mg/L
  neutralization MPI: 100
[11]
  neutralization IC50: 0.089 mg/L
  neutralization IC80: 0.777 mg/L
  neutralization MPI: 95
[12]
  neutralization IC50: > 50 mg/L
  neutralization IC80: > 50 mg/L
  neutralization MPI: 9
[13]
  neutralization IC50: 0.017 mg/L
  neutralization IC80: 0.047 mg/L
  neutralization MPI: 100
[14]
  neutralization IC50: > 50 mg/L
  neutralization IC80: > 50 mg/L
  neutralization MPI: 49
[15]
  neutralization IC50: > 50 mg/L
  neutralization IC80: > 50 mg/L
  neutralization MPI: 20
[16]
  neutralization IC50: 0.249 mg/L
  neutralization IC80: 1.2 mg/L
  neutralization MPI: 99
[17]
  neutralization IC50: 0.095 mg/L
  neutralization IC80: 0.258 mg/L
  neutralization MPI: 100
[18]
  neutralization IC50: > 50 mg/L
  neutralization IC80: > 50 mg/L
  neutralization MPI: 23
[19]
  neutralization IC50: 0.175 mg/L
  neutralization IC80: 0.751 mg/L
  neutralization MPI: 100
[20]
  neutralization IC50: 0.094 mg/L
  neutralization IC80: 0.339 mg/L
  neutralization MPI: 100
[21]
  neutralization IC50: 0.727 mg/L
  neutralization IC80: 3.29 mg/L
  neutralization MPI: 100
[22]
  neutralization IC50: 0.089 mg/L
  neutralization IC80: 0.375 mg/L
  neutralization MPI: 100
[23]
  neutralization IC50: 0.055 mg/L
  neutralization IC80: 0.252 mg/L
  neutralization MPI: 100
[24]
  neutralization IC50: 0.031 mg/L
  neutralization IC80: 0.134 mg/L
  neutralization MPI: 100
[25]
  neutralization IC50: 0.119 mg/L
  neutralization IC80: 0.575 mg/L
  neutralization MPI: 100
[26]
  neutralization IC50: 0.023 mg/L
  neutralization IC80: 0.065 mg/L
  neutralization MPI: 100
[27]
  neutralization IC50: 0.072 mg/L
  neutralization IC80: 0.2 mg/L
  neutralization MPI: 100
[28]
  neutralization IC50: 0.308 mg/L
  neutralization IC80: 0.701 mg/L
  neutralization MPI: 100
[29]
  neutralization IC50: 0.064 mg/L
  neutralization IC80: 0.223 mg/L
  neutralization MPI: 100
[30]
  neutralization IC50: 0.015 mg/L
  neutralization IC80: 0.034 mg/L
  neutralization MPI: 100
[31]
  neutralization IC50: 0.147 mg/L
  neutralization IC80: 0.517 mg/L
  neutralization MPI: 100
[32]
  neutralization IC50: 0.051 mg/L
  neutralization IC80: 0.247 mg/L
  neutralization MPI: 100
[33]
  neutralization IC50: 0.216 mg/L
  neutralization IC80: 0.821 mg/L
  neutralization MPI: 100
[34]
  neutralization IC50: 0.025 mg/L
  neutralization IC80: 0.081 mg/L
  neutralization MPI: 100
[35]
  neutralization IC50: 46.7 mg/L
  neutralization IC80: > 50 mg/L
  neutralization MPI: 51
[36]
  neutralization IC50: 0.082 mg/L
  neutralization IC80: 0.274 mg/L
  neutralization MPI: 100

## N49P9.1 (antibody)
[1]
  neutralization IC50: 0.097 mg/L
  neutralization IC80: 0.259 mg/L
  neutralization MPI: 100
[2]
  neutralization IC50: > 50 mg/L
  neutralization IC80: > 50 mg/L
  neutralization MPI: 26
[3]
  neutralization IC50: 0.17 mg/L
  neutralization IC80: 0.579 mg/L
  neutralization MPI: 100
[4]
  neutralization IC50: 0.474 mg/L
  neutralization IC80: 2.24 mg/L
  neutralization MPI: 100
[5]
  neutralization IC50: 0.067 mg/L
  neutralization IC80: 0.237 mg/L
  neutralization MPI: 100
[6]
  neutralization IC50: 0.045 mg/L
  neutralization IC80: 0.352 mg/L
  neutralization MPI: 98
[7]
  neutralization IC50: 0.076 mg/L
  neutralization IC80: 0.223 mg/L
  neutralization MPI: 100
[8]
  neutralization IC50: > 50 mg/L
  neutralization IC80: > 50 mg/L
  neutralization MPI: 45
[9]
  neutralization IC50: 0.059 mg/L
  neutralization IC80: 0.178 mg/L
  neutralization MPI: 100
[10]
  neutralization IC50: 1.35 mg/L
  neutralization IC80: 8.26 mg/L
  neutralization MPI: 95
[11]
  neutralization IC50: 0.282 mg/L
  neutralization IC80: 6.78 mg/L
  neutralization MPI: 90
[12]
  neutralization IC50: > 50 mg/L
  neutralization IC80: > 50 mg/L
  neutralization MPI: 7
[13]
  neutralization IC50: 0.03 mg/L
  neutralization IC80: 0.082 mg/L
  neutralization MPI: 100
[14]
  neutralization IC50: > 50 mg/L
  neutralization IC80: > 50 mg/L
  neutralization MPI: 30
[15]
  neutralization IC50: > 50 mg/L
  neutralization IC80: > 50 mg/L
  neutralization MPI: 6
[16]
  neutralization IC50: 0.398 mg/L
  neutralization IC80: 1.76 mg/L
  neutralization MPI: 97
[17]
  neutralization IC50: 0.119 mg/L
  neutralization IC80: 0.389 mg/L
  neutralization MPI: 100
[18]
  neutralization IC50: > 50 mg/L
  neutralization IC80: > 50 mg/L
  neutralization MPI: 23
[19]
  neutralization IC50: 0.323 mg/L
  neutralization IC80: 1.13 mg/L
  neutralization MPI: 100
[20]
  neutralization IC50: 0.163 mg/L
  neutralization IC80: 0.695 mg/L
  neutralization MPI: 100
[21]
  neutralization IC50: 0.965 mg/L
  neutralization IC80: 3.93 mg/L
  neutralization MPI: 100
[22]
  neutralization IC50: 0.068 mg/L
  neutralization IC80: 0.478 mg/L
  neutralization MPI: 100
[23]
  neutralization IC50: 0.131 mg/L
  neutralization IC80: 0.67 mg/L
  neutralization MPI: 100
[24]
  neutralization IC50: 0.04 mg/L
  neutralization IC80: 0.2 mg/L
  neutralization MPI: 100
[25]
  neutralization IC50: 0.156 mg/L
  neutralization IC80: 0.939 mg/L
  neutralization MPI: 100
[26]
  neutralization IC50: 0.029 mg/L
  neutralization IC80: 0.083 mg/L
  neutralization MPI: 100
[27]
  neutralization IC50: 0.062 mg/L
  neutralization IC80: 0.218 mg/L
  neutralization MPI: 100
[28]
  neutralization IC50: 0.469 mg/L
  neutralization IC80: 1.52 mg/L
  neutralization MPI: 100
[29]
  neutralization IC50: 0.073 mg/L
  neutralization IC80: 0.232 mg/L
  neutralization MPI: 100
[30]
  neutralization IC50: 0.019 mg/L
  neutralization IC80: 0.057 mg/L
  neutralization MPI: 100
[31]
  neutralization IC50: 0.127 mg/L
  neutralization IC80: 0.352 mg/L
  neutralization MPI: 100
[32]
  neutralization IC50: 0.092 mg/L
  neutralization IC80: 0.286 mg/L
  neutralization MPI: 100
[33]
  neutralization IC50: 0.508 mg/L
  neutralization IC80: 1.82 mg/L
  neutralization MPI: 100
[34]
  neutralization IC50: 0.042 mg/L
  neutralization IC80: 0.15 mg/L
  neutralization MPI: 100
[35]
  neutralization IC50: > 50 mg/L
  neutralization IC80: > 50 mg/L
  neutralization MPI: 10
[36]
  neutralization IC50: 0.143 mg/L
  neutralization IC80: 0.476 mg/L
  neutralization MPI: 100
